# How the values were obtained:
# [1] = target: LH receptor on bovine granulosa cells and small luteal cells (bovine) (UniProt Q28005); experiment: cell-based or functional assay
# [2] = target: GnRH receptor of rat pituitary membranes (rat) (UniProt P30969); experiment: radioligand displacement on rat pituitary membranes, equimolar concentrations; reference native GnRH
# UniProt P30969, sequence (P30969 whole entry): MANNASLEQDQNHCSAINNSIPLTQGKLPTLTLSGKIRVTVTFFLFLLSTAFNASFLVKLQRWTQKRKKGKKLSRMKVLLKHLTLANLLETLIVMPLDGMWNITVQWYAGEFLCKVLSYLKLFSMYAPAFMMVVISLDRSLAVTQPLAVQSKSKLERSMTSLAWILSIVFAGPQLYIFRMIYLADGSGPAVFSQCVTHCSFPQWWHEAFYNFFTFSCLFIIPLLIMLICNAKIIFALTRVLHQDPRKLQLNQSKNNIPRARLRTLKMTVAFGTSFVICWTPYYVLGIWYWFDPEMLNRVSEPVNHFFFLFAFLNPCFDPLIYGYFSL
# UniProt Q28005, sequence (Q28005 27-701): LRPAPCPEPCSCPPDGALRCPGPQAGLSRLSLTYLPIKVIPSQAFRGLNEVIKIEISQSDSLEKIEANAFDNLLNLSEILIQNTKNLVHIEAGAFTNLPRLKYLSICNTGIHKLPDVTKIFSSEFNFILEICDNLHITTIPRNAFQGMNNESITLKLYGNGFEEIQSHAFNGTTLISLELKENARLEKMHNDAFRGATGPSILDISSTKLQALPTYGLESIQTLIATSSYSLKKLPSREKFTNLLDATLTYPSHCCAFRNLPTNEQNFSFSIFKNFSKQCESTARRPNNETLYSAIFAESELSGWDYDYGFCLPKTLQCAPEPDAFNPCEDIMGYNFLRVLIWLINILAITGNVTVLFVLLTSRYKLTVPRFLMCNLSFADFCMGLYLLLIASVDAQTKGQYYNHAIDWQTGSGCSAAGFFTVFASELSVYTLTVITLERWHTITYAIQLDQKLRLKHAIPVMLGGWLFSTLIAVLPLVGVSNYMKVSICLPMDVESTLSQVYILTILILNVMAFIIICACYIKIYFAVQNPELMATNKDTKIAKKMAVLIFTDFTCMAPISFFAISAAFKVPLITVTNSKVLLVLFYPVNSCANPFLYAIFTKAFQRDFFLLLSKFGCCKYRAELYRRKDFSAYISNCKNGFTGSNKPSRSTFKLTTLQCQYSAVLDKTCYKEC
substance,measurement,setting,value
hecate-bLH conjugate (peptide),killing of bovine granulosa cells (Trypan Blue exclusion) (fold of the cells killed by hecate alone),[1],2
same,killing of bovine small luteal cells (Trypan Blue exclusion) (fold of the cells killed by hecate alone),[1],2
D-Lys6GnRH (peptide),displacement of radiolabelled GnRH as percent of the cpm displaced by native GnRH,[2],187%

# From patent publication EP0975354B1
